# Laboratory results from the RNAGym collection of RNA variant scans (doi:10.1073/pnas.2313332121).
# This sample holds only a part of the variants without activity.
# B1: TPR 5TU (parent)
# chain: GGAUCUUCUCGAUCUAACAAAAAAGACAAAUCUGCCACAAAGCUUGAGAGCAUCUUCGGAUGCAGAGGCGGCAGCCUUCGGUGGCGCGAUAGCGCCAACGUUCUCAACUAUGACACGCAAAACGCGUGCUCCGUUGAAUGGAGUUUAUCAUG
# Variants of: B1
# Experiment: polymerase ribozyme fitness, log enrichment relative to wild type (log ratio); higher = more active; in vitro selection for triplet polymerase activity
# Procedure, shortened: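 Mutant libraries of both subunits of a heterodimeric triplet polymerase ribozyme were PCR-built, transcribed, and selected once in triplicate, with frozen incubation at −7 °C and capture of gel-excised extended constructs on streptavidin beads before RT-PCR. Illumina sequencing of input and output libraries was filtered to genotypes with ≥10 input reads and ≥1 read per output. Fitness is the logarithm of genotype enrichment over wild-type enrichment, using inverse-variance-weighted replicate averages. The logarithm is base 2.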
row,Variant,polymerase ribozyme fitness (log ratio)
1,G59A G83C A89U,-1.39
2,G59U C93A,-3.58
3,A60U G67A A91G A137U,≤ -4.2
4,A60C U61A,-2.27
5,G58U G86A C87A,≤ -4.2
6,A60G G74A,-3.26
7,A60G C85U U144G,0.543
8,G59C U78C C85A U144A A150U,≤ -4.2
9,A60C C76U A89G C114U G141U,≤ -4.2
10,A60C C85U,-1.01
11,G58U G126U A150C,-4.03
12,G59A A60C U61A G81A C103G,≤ -4.2
13,G59C C95G C103U G126A,-2.28
14,G59A C85A A115G C123U,-2.65
15,G59A C76G G80C C116G C118G,≤ -4.2
16,A60C C76U C93U,-3.48
17,G59C C75U,-1.52
18,A60C G94C A97G A98G U134C,-3.8
19,G59C C87A U101C G141U A147U,≤ -4.2
20,A60G C93U U104G G143C,-3.09
21,G58U G92A,-2.51

row,Variant,polymerase ribozyme fitness (log ratio)
1,G59C A73G G86U,-2.26
2,A60G A73G C85A,-2.02
3,A60U C96G,-3.34
4,G59C A60G C85A,-1.88
5,G59U A107U U127A,≤ -4.2
6,G59U A107C A121U,-3.86
7,A60G A119C A120U U151C,-4.18
8,G59U C87G C95U U101G C149G,≤ -4.2
9,G59A A122G U148C,-3
10,G59A C75U C85U U144A,-1.61
11,A60C G71C C93G G140A U151C,≤ -4.2
12,G59C G67A U78G C79A C87A G143A,≤ -4.2
13,G59A C76G,≤ -4.2
14,G59C C76A C87G,≤ -4.2
15,A60U A64C A89U C116G G133C A147C U148C,≤ -4.2
16,G59C C87U U102G C132U U145G,≤ -4.2
17,G59C G124A U151C,-3.78
18,G59C G126C,0.783
19,A60G C69A A91U A97U U134C,≤ -4.2
20,A60G G67U G86A,-4.13
21,A60U C76A A120U,-1.94

row,Variant,polymerase ribozyme fitness (log ratio)
1,A60C C76U G80C G117U C123A,≤ -4.2
2,G59C U127A,-3.77
3,G59C A73G C85A,-2.84
4,G59A C99G,-1.14
5,A60U C131G,-3.54
6,A60G G94A C103A G140C,≤ -4.2
7,G59A C85G C99U A120G,≤ -4.2
8,G59A G94U C95A U104C,-2.63
9,A60G C96A A121U,-0.437
10,G59U C95U,-2.6
11,G59A C85U C149G,-3.59
12,A60G U61G C76A G124C C125G,≤ -4.2
13,G59A G83U G84A,-1.23
14,A60C U101G,-1.58
15,G59C C96G C118G A142U,-3.61
16,A60G A110G G136A,-2.56
17,G59C C85G A89U G92A,≤ -4.2
18,A60C U82A G84U U102G G126U,≤ -4.2
19,G59C C93G,-2.98
20,G59C C93U,-1.11
21,A60U C93A,-3.06

row,Variant,polymerase ribozyme fitness (log ratio)
1,A60G G67A U78G C96G A120U G140U A147G,≤ -4.2
2,G59U G68A C96U,≤ -4.2
3,G59C U77A C96G C105U G140A,≤ -4.2
4,A60C C93A A98U A122C,-2.61
5,G59C A60U G68A C75A C108A,-4.15
6,A60C G92U,-0.296
7,G58U G86A,-1.55
8,G59U A64G A89G A107C,≤ -4.2
9,A60U C87U,-1.36
10,A60G G67U C93G U102C,≤ -4.2
11,G59U C69U G86A C95G A107U,≤ -4.2
12,G59A C103A A107U A110U U111A C118A A138G,≤ -4.2
13,A60C A120U A137C G140U,≤ -4.2
14,A60G C96U,0.674
15,G59A A137U G141C,-3.95
16,G59C A138G,-3.04
17,A60C G65U C132A,-4.19
18,A60G G68A U139A,≤ -4.2
19,A60C A91U C93G A122C,≤ -4.2
20,G59A G62A G86U A107C,≤ -4.2
21,G59C G68C C118G,-4.15
